Experimental data: US20160355587A1 (published 2016)

T1: human CD166 protein (human, UniProt Q13740 28-526)
T1 chain: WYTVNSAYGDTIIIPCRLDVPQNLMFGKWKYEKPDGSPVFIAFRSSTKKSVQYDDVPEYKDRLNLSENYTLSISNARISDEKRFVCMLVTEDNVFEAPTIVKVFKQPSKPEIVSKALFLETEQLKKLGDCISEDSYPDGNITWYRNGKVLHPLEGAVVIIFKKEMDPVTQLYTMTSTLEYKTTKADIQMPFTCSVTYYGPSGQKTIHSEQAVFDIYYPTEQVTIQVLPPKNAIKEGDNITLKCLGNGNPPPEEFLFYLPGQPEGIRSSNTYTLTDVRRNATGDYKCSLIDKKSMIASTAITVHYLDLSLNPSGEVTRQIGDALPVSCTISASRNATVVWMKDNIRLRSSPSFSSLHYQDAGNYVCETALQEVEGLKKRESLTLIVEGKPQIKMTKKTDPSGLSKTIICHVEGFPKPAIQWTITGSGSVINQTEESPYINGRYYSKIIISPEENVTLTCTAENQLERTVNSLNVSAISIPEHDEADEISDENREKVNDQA

B1: CD166-M9_vk3a/HcB (antibody, V domains shown)
VH: QITLKESGPTLVKPTQTLTLTCTFSGFSLSTYGMGVGWIRQPPGKALEWLANIWWSEDKHYSPSLKSRLTITKDTSKNQVVLTMTNMDPVDTATYYCVQIDYGNDYAFTYWGQGTLVTVSS
VL: DIVMTQSPLSLPVTPGEPASISCRSSQSLLHSNGITYLYWYLQKPGQSPQLLIYQMSNRASGVPDRFSGSGSGTDFTLKISRVEAEDVGVYYCAQNLELPYTFGQGTKLEIK
B2: human CD166 (receptor)
chain: WYTVNSAYGDTIIIPCRLDVPQNLMFGKWKYEKPDGSPVFIAFRSSTKKSVQYDDVPEYKDRLNLSENYTLSISNARISDEKRFVCMLVTEDNVFEAPTIVKVFKQPSKPEIVSKALFLETEQLKKLGDCISEDSYPDGNITWYRNGKVLHPLEGAVVIIFKKEMDPVTQLYTMTSTLEYKTTKADIQMPFTCSVTYYGPSGQKTIHSEQAVFDIYYPTEQVTIQVLPPKNAIKEGDNITLKCLGNGNPPPEEFLFYLPGQPEGIRSSNTYTLTDVRRNATGDYKCSLIDKKSMIASTAITVHYLDLSLNPSGEVTRQIGDALPVSCTISASRNATVVWMKDNIRLRSSPSFSSLHYQDAGNYVCETALQEVEGLKKRESLTLIVEGKPQIKMTKKTDPSGLSKTIICHVEGFPKPAIQWTITGSGSVINQTEESPYINGRYYSKIIISPEENVTLTCTAENQLERTVNSLNVSAISIPEHDEADEISDENREKVNDQA
B3: CD166-M9_vK2/HcC (antibody, V domains shown)
VH: QITLKESGPTLVKPTQTLTLTCTFSGFSLSTYGMGVGWIRQPPGKALEWLANIWWSEDKHYSPSLKSRLTITKDTSKNQVVLTITNVDPVDTATYYCVQIDYGNDYAFTYWGQGTLVTVSS
VL: DIVMTQSPLSLPVTPGEPASISCRSSKSLLHSNGITYLYWYLQKPGQSPQLLIYQMSNLASGVPDRFSSSGSGTDFTLKISRVEAEDVGVYYCAQNLELPYTFGQGTKLEIK
B4: CD166-M9_vK3a/HcC (antibody, V domains shown)
VH: QITLKESGPTLVKPTQTLTLTCTFSGFSLSTYGMGVGWIRQPPGKALEWLANIWWSEDKHYSPSLKSRLTITKDTSKNQVVLTITNVDPVDTATYYCVQIDYGNDYAFTYWGQGTLVTVSS
VL: DIVMTQSPLSLPVTPGEPASISCRSSQSLLHSNGITYLYWYLQKPGQSPQLLIYQMSNRASGVPDRFSGSGSGTDFTLKISRVEAEDVGVYYCAQNLELPYTFGQGTKLEIK
B5: CD166-M9_vK3b/HcB (antibody, V domains shown)
VH: QITLKESGPTLVKPTQTLTLTCTFSGFSLSTYGMGVGWIRQPPGKALEWLANIWWSEDKHYSPSLKSRLTITKDTSKNQVVLTMTNMDPVDTATYYCVQIDYGNDYAFTYWGQGTLVTVSS
VL: DIVMTQSPLSLPVTPGEPASISCRSSQSLLHSNGITYLYWYLQKPGQSPQLLIYQMSNRASGVPDRFSSSGSGTDFTLKISRVEAEDVGVYYCAQNLELPYTFGQGTKLEIK
B6: CD166-M9_vK3b/HcC (antibody, V domains shown)
VH: QITLKESGPTLVKPTQTLTLTCTFSGFSLSTYGMGVGWIRQPPGKALEWLANIWWSEDKHYSPSLKSRLTITKDTSKNQVVLTITNVDPVDTATYYCVQIDYGNDYAFTYWGQGTLVTVSS
VL: DIVMTQSPLSLPVTPGEPASISCRSSQSLLHSNGITYLYWYLQKPGQSPQLLIYQMSNRASGVPDRFSSSGSGTDFTLKISRVEAEDVGVYYCAQNLELPYTFGQGTKLEIK

What was measured:
[1] = biological target: T1, human CD166 protein; test: FACS; apparent Kd
[2] = biological target: CD166-M9_chimera; test: FACS; apparent Kd

Binder | Kd [1] [nM] | Kd [2] [nM]
B1 | 2.88 | 
B2 |  | 1.12
B3 | 2.5 | 
B4 | 3.76 | 
B5 | 2.61 | 
B6 | 3.19 | 
